Data published in doi:10.1101/2024.04.26.590571 (bioRxiv, 2024).

Biological target: the molecule itself
Test: cryo-EM structure

B1: L-protein (BchL homodimer), electron donor component of Rhodobacter sphaeroides DPOR (enzyme)
chain: MSPKDLTIPTGADGEGSVQVHLDEADKITGAKVFAVYGKGGIGKSTTSSNLSAAFSILGKRVLQIGCDPKHDSTFTLTGSLVPTVIDVLKDVDFHPEELRPEDFVFEGFNGVMCVEAGGPPAGTGCGGYVVGQTVKLLKQHHLLDDTDVVIFDVLGDVVCGGFAAPLQHADQAVVVTANDFDSIYAMNRIIAAVQAKSKNYKVRLAGCVANRSRATDEVDRFCKETNFRRLAHMPDLDAIRRSRLKKKTLFEMDEDQDVLAARAEYIRLAESLWRGLDPIDPHSLPDRDIFELLGFD
B1 was tested, and the “stoichiometry N” value was 2.
